According to patent US20060263802A1 (CRUCELL HOLLAND B V, published 2006):

What was measured:
Experiment in all cases: PEPSCAN ELISA, looped peptide, antibody 10 µg/ml
[1] = target: looped/cyclic peptide … (rabies virus strain ERA)
[2] = target: looped/cyclic peptide … (rabies virus strain ERA); remark: listed apart in the source
[3] = target: looped/cyclic peptide … (rabies virus strain ERA); remark: listed apart in the source
[4] = target: looped/cyclic peptide … (rabies virus strain ERA); remark: listed apart in the source
[5] = target: looped/cyclic peptide … (rabies virus strain ERA); remark: listed apart in the source
[6] = target: looped/cyclic peptide … (rabies virus strain ERA); remark: listed apart in the source
[7] = target: looped/cyclic peptide … (rabies virus strain ERA); remark: listed apart in the source
[8] = target: looped/cyclic peptide … (rabies virus strain ERA); remark: listed apart in the source
[9] = target: looped/cyclic peptide … (rabies virus strain ERA); remark: listed apart in the source
[10] = target: looped/cyclic peptide … (rabies virus strain ERA); remark: listed apart in the source
[11] = target: looped/cyclic peptide … (rabies virus strain ERA); remark: listed apart in the source
[12] = target: looped/cyclic peptide … (rabies virus strain ERA); remark: listed apart in the source
[13] = target: looped/cyclic peptide … (rabies virus strain ERA); remark: listed apart in the source
[14] = target: looped/cyclic peptide … (rabies virus strain ERA); remark: listed apart in the source
[15] = target: looped/cyclic peptide … (rabies virus strain ERA); remark: listed apart in the source
[16] = target: looped/cyclic peptide … (rabies virus strain ERA); remark: listed apart in the source
[17] = target: looped/cyclic peptide … (rabies virus strain ERA); remark: listed apart in the source
[18] = target: looped/cyclic peptide … (rabies virus strain ERA); remark: listed apart in the source
[19] = target: looped/cyclic peptide … (rabies virus strain ERA); remark: listed apart in the source
[20] = target: looped/cyclic peptide … (rabies virus strain ERA); remark: listed apart in the source
[21] = target: looped/cyclic peptide … (rabies virus strain ERA); remark: listed apart in the source
[22] = target: looped/cyclic peptide … (rabies virus strain ERA); remark: listed apart in the source
[23] = target: looped/cyclic peptide … (rabies virus strain ERA); remark: listed apart in the source
[24] = target: looped/cyclic peptide … (rabies virus strain ERA); remark: listed apart in the source
[25] = target: looped/cyclic peptide … (rabies virus strain ERA); remark: listed apart in the source
[26] = target: looped/cyclic peptide … (rabies virus strain ERA); remark: listed apart in the source
[27] = target: looped/cyclic peptide … (rabies virus strain ERA); remark: listed apart in the source
[28] = target: looped/cyclic peptide … (rabies virus strain ERA); remark: listed apart in the source
[29] = target: looped/cyclic peptide … (rabies virus strain ERA); remark: listed apart in the source
[30] = target: looped/cyclic peptide … (rabies virus strain ERA); remark: listed apart in the source
[31] = target: looped/cyclic peptide … (rabies virus strain ERA); remark: listed apart in the source
[32] = target: looped/cyclic peptide … (rabies virus strain ERA); remark: listed apart in the source
[33] = target: looped/cyclic peptide … (rabies virus strain ERA); remark: listed apart in the source
[34] = target: looped/cyclic peptide … (rabies virus strain ERA); remark: listed apart in the source
[35] = target: looped/cyclic peptide … (rabies virus strain ERA); remark: listed apart in the source
[36] = target: looped/cyclic peptide … (rabies virus strain ERA); remark: listed apart in the source
[37] = target: looped/cyclic peptide … (rabies virus strain ERA); remark: listed apart in the source
[38] = target: looped/cyclic peptide … (rabies virus strain ERA); remark: listed apart in the source
[39] = target: looped/cyclic peptide … (rabies virus strain ERA); remark: listed apart in the source
[40] = target: looped/cyclic peptide … (rabies virus strain ERA); remark: listed apart in the source
[41] = target: looped/cyclic peptide … (rabies virus strain ERA); remark: listed apart in the source
[42] = target: looped/cyclic peptide … (rabies virus strain ERA); remark: listed apart in the source
[43] = target: looped/cyclic peptide … (rabies virus strain ERA); remark: listed apart in the source
[44] = target: looped/cyclic peptide … (rabies virus strain ERA); remark: listed apart in the source
[45] = target: looped/cyclic peptide … (rabies virus strain ERA); remark: listed apart in the source
[46] = target: looped/cyclic peptide … (rabies virus strain ERA); remark: listed apart in the source
[47] = target: looped/cyclic peptide … (rabies virus strain ERA); remark: listed apart in the source
[48] = target: looped/cyclic peptide … (rabies virus strain ERA); remark: listed apart in the source
[49] = target: looped/cyclic peptide … (rabies virus strain ERA); remark: listed apart in the source
[50] = target: looped/cyclic peptide … (rabies virus strain ERA); remark: listed apart in the source
[51] = target: looped/cyclic peptide … (rabies virus strain ERA); remark: listed apart in the source
[52] = target: looped/cyclic peptide … (rabies virus strain ERA); remark: listed apart in the source
[53] = target: looped/cyclic peptide … (rabies virus strain ERA); remark: listed apart in the source
[54] = target: looped/cyclic peptide … (rabies virus strain ERA); remark: listed apart in the source
[55] = target: looped/cyclic peptide … (rabies virus strain ERA); remark: listed apart in the source
[56] = target: looped/cyclic peptide … (rabies virus strain ERA); remark: listed apart in the source
[57] = target: looped/cyclic peptide … (rabies virus strain ERA); remark: listed apart in the source
[58] = target: looped/cyclic peptide … (rabies virus strain ERA); remark: listed apart in the source
[59] = target: looped/cyclic peptide … (rabies virus strain ERA); remark: listed apart in the source
[60] = target: looped/cyclic peptide … (rabies virus strain ERA); remark: listed apart in the source
[61] = target: looped/cyclic peptide … (rabies virus strain ERA); remark: listed apart in the source
[62] = target: looped/cyclic peptide … (rabies virus strain ERA); remark: listed apart in the source
[63] = target: looped/cyclic peptide … (rabies virus strain ERA); remark: listed apart in the source
[64] = target: looped/cyclic peptide … (rabies virus strain ERA); remark: listed apart in the source
[65] = target: looped/cyclic peptide … (rabies virus strain ERA); remark: listed apart in the source
[66] = target: looped/cyclic peptide … (rabies virus strain ERA); remark: listed apart in the source
[67] = target: looped/cyclic peptide … (rabies virus strain ERA); remark: listed apart in the source
[68] = target: looped/cyclic peptide … (rabies virus strain ERA); remark: listed apart in the source
[69] = target: looped/cyclic peptide … (rabies virus strain ERA); remark: listed apart in the source
[70] = target: looped/cyclic peptide … (rabies virus strain ERA); remark: listed apart in the source
[71] = target: looped/cyclic peptide DIHHLSCPNNLVVED (rabies virus strain ERA)
[72] = target: looped/cyclic peptide … (rabies virus strain ERA); remark: listed apart in the source
[73] = target: looped/cyclic peptide … (rabies virus strain ERA); remark: listed apart in the source
[74] = target: looped/cyclic peptide … (rabies virus strain ERA); remark: listed apart in the source
[75] = target: looped/cyclic peptide … (rabies virus strain ERA); remark: listed apart in the source

B1: human monoclonal antibody CRJB (antibody, V domains shown)
VH: QITLKETGPTLVKPTQTLTLTCTFSGFSLSTSGVGVGWIRQPPGKALEWVTLIYWDDDKRYSPSLENRVTIRKDTSKNQVALTMTNMDPLDTGTYYCAHRQHISSFPWFDSWGQGTLVTVSS
VL: SYVLTQPPSVSVAPGKTARINCGGNNIEYRSVHWYQQKSGQAPVAVIYDNSDRPSGIPERFSGSKSGNTATLTISRVEAGDEADYYCQVWDISSDVVFGGGTKLTVLG
B1 showed an OD value [1] of 33 OD, an OD value [2] of 86 OD and an OD value [3] of 92 OD. The OD value [4] was 72 OD, the OD value [5] was 90 OD and the OD value [6] was 68 OD. The OD value [7] was 75 OD, the OD value [8] was 83 OD and the OD value [9] was 64 OD. It also gave an OD value [10] of 90 OD, an OD value [11] of 83 OD and an OD value [12] of 76 OD. It also gave an OD value [13] of 80 OD, an OD value [14] of 72 OD and an OD value [15] of 50 OD. It also gave an OD value [16] of 68 OD, an OD value [17] of 69 OD and an OD value [18] of 100 OD. It also gave an OD value [19] of 72 OD, an OD value [20] of 72 OD and an OD value [21] of 73 OD. The OD value [22] was 78 OD, the OD value [23] was 85 OD and the OD value [24] was 45 OD. The OD value [25] was 91 OD, the OD value [26] was 58 OD and the OD value [27] was 85 OD. For the same binder, the OD value [28] was 70 OD, the OD value [29] was 61 OD and the OD value [30] was 65 OD. For the same binder, the OD value [31] was 86 OD, the OD value [32] was 51 OD and the OD value [33] was 69 OD. It also gave an OD value [34] of 69 OD, an OD value [35] of 60 OD and an OD value [36] of 71 OD. It also gave an OD value [37] of 88 OD, an OD value [38] of 79 OD and an OD value [39] of 64 OD. For the same binder, the OD value [40] was 92 OD, the OD value [41] was 54 OD and the OD value [42] was 96 OD. For the same binder, the OD value [43] was 82 OD, the OD value [44] was 85 OD and the OD value [45] was 73 OD. It also gave an OD value [46] of 99 OD, an OD value [47] of 83 OD and an OD value [48] of 60 OD. For the same binder, the OD value [49] was 90 OD, the OD value [50] was 78 OD and the OD value [51] was 68 OD. The OD value [52] was 83 OD, the OD value [53] was 77 OD and the OD value [54] was 111 OD. The OD value [55] was 75 OD, the OD value [56] was 71 OD and the OD value [57] was 104 OD. For the same binder, the OD value [58] was 93 OD, the OD value [59] was 93 OD and the OD value [60] was 63 OD. The OD value [61] was 71 OD, the OD value [62] was 89 OD and the OD value [63] was 55 OD. The OD value [64] was 93 OD, the OD value [65] was 82 OD and the OD value [66] was 71 OD. For the same binder, the OD value [67] was 99 OD, the OD value [68] was 112 OD and the OD value [69] was 83 OD. It also gave an OD value [70] of 68 OD, an OD value [71] of 48 OD and an OD value [72] of 60 OD. For the same binder, the OD value [73] was 93 OD, the OD value [74] was 73 OD and the OD value [75] was 83 OD.
